According to the DeepSol protein solubility set:

Test: soluble on expression in E. coli; label from the status in PepcDB or PDB records

Question: With “MDRPSRITRFFMGIVSWAERLNLKYAKLGNPPVYDNATFPWSAEIEKEWPAIRKELDKILLRQSKLPSFQDISTDVKTISTDNRWKTFFLLGFGVKSEQNIKACPETWRIVNKIPGLTTAMFSIFEPGKHLPPHRGPYNGVLRLHLGLIVPEPNDHWRSAWTARSATGTKARCLEHHHHHH” as the sequence, how does the “soluble on expression in E. coli” value read?
Answer: not soluble

Question: Which “soluble on expression in E. coli” value does the source give for “RQLTVLERVAPTITGNLENQTTSIGESIEVSCTASGNPPPQIMWFKDNETLVEDSGIVLKDGNRNLTIRRVRKEDEGLYTCQACSVLGCAKVEAFFIIEGAQEKTNLE” here?
Answer: soluble

Question: For “MGSDKIHHHHHHMITHRSDLNANYLLNALPRSEWESLAQHVELVRLRAGELLTDSGQRIVHVYFPTTSVVSLLSLLEDGATVEIAAVGNEGLVGVPVVTGGDTMPCRVEVRSPGLAYRIPARLLRSELPRTPTLQRVTLLYVQAMLTQIAQTAACNRHHSLNKQLCRWLLLAVDRLSSNELVITQQVIANMLGVRREGVTEAAGKLEDLGLIHHSRGHITVLDRCGLEKHSCECYKLVKREYDRLLPALAHA”, which “soluble on expression in E. coli” value is on record?
Answer: not soluble

Question: With “MKSAIPSLMVQGTTSDAGKSVLVAGLCRVLARKGINVAPFKPQNMALNSAVTKDGGEIGRAQAVQAQACNIEPTVHMNPVLIKPNSDTGAQIILQGKALSNMDAASFHDYKKVAMNTVLDSFSKLTKEFDSIMIEGAGSPAEINLREGDIANMGFAEAADVPVIIVADIDRGGVFAHLYGTLALLSESEQTRVKGFVINRFRGDIRLLQSGLDWLEEKTGKPVLGVLPYLHGLNLEAEDAITAQQELNSEVKLNVVVPVLTRISNHTDFDVLRLNPDINLSYVGKGEKI” as the sequence, how does the “soluble on expression in E. coli” value read?
Answer: not soluble

Question: With “MGSDKIHHHHHHMETPMTMSQVDAVVRDPASVVTAIESRFSCRAFSPDRPVSRQQVEEILRIARCAASSTNTQPWKVYVLQGDRRDALVAQVCAAHDATRADSSLTAEYGEVDGYYPSEWVSPYIDRRRHNGWTLYGHLGIGKGEKDKMHAQGQRNYRFFDAPVGLMFTIDRVMGRGSLIDYGMFLQTLMLAARALGLHTCPQAAWNNCAKIVLPFIGAGANEMLVCGMALGYADQSAPVNTYRTPRETVESFTRWI” as the sequence, how does the “soluble on expression in E. coli” value read?
Answer: not soluble

Question: Which “soluble on expression in E. coli” value does the source give for “QVIEVLNKQVADWSVLFTKLHNFHWYVKGPQFFTLHEKFEELYTESATHIDEIAERILAIGGKPVATMKEYLEISSIQEAAYGETAEGMVEAIMKDYEMMLVELKKGMEIAQNSDDEMTSDLLLGIYTELEKHAWMLRAFLN” here?
Answer: soluble

Question: For “MGSDKIHHHHHHMDNKEKEDEELSDELKDQPGPSEKPRTPTVVAFTKPSFYRVNTVISDVKVCRSMSYDMCGNHQQELLFDLYKDETTGKVYLPRFFKALLESGIRKDDPRIDKMIQNIKDADLLDDFVWGTQHIYLEKDTFKRYIGSSIGVVTKALKKQMIIPDWERFVSDMGEIFEDVRSHNEGDLATYIPQLSRVAPDSWAMSVCTIDGQRKMWGDALKPFCLQSVSKPFTYALVHDDIGPEELHAHVGQEPSGRLFNDISLDHNKKPHNPLINAGAIVVASLLKNKLPLADRFDFMIHACRKFVGSGYIGFDNSVFLSERETADRNYALSYYMREHKVFPKDLNLQDTLDLYFQICSIETNCDSLAVMAATLANGGVNPMNGERIVNNRACRDTLSLMYSCGMYDWSGQFAFHVGLPAKSGVSGDMIIVIPNVMGIALYSPRLDKLGNTVRGVKFAEQLVQKYNFHNYDSLIYSDNKKIDPRRQLKDDHDGQNRFMYATKLGDIAAIKRFLLMGHDIHCKDYDDRTVLHVAAAEGDVVTLEYVLSKWQEDPNPCDRYDRTPLDDAKHFNHTACVKLLEEAITVYNLKGQDD”, which “soluble on expression in E. coli” value is on record?
Answer: not soluble

Question: Which “soluble on expression in E. coli” value does the source give for “MSLSTIYDIAKHAGVSKSTVSRVLNNQANISEESRKKVLAAIDQLNYQPSKLARALTSSGFDAIMVISNRSTTTTTGNPFFSEIIQSISTQAELENFDLILQTAKNSEDELKKCLSKIQEKMIKGIIMLSSPADEDFFHQLDPYNIPIVVTGKVEGHYKNIYSVDTDNFGDSYALTKHLIKQGHQKIACIHAPLDYHVSIDRLAGFRSCLFDHQLDLRNDWIIDSGYSIEDSYKAALRLMEGPDKPTAVFATDDLKVLSIYKMAADKNLQIPTDFSVIGYNDKVASSFLSPPLTSIDIPINKLGKKATNLLFRLIHQDKNVPKTTIIQTEMIERESIQKINEGHHHHHH” here?
Answer: not soluble

Question: For “MAHHHHHHMNPQTSLTRKQCDFTKLIMAGYDLELNNGSTQDFDVMFHGPNGTAYEGGIWKVHVTLPDDYPFASPSIGFMNKLLHPNVDEASGSVCLDVINQTWTPLYSLVNVFEVFLPQLLTYPNPSDPLNSDAASLLMKDKNIYEEKVKEYVKLYASKDLWEQQKKEKKPSNINGNISPVSELSYVDQDVQDIDLDNL”, which “soluble on expression in E. coli” value is on record?
Answer: soluble

Question: Which “soluble on expression in E. coli” value does the source give for “MGSDKIHHHHHHMNSTITPTLNLKAQHAERRVVVTGASGYVGARLVVELLSTGFNVRATSRSLSSLKRFPWYDQVEAVEADLSISEDVNRLFEDVDTVFYLVHSMSGTQNFEELESKIASKVAQAAHSNGVRQIIYLSGLHPRTELDKLSPHMRSRENVARILGSTAVPAITFRAATLIGSGSASFEMIRHLTERLPIMVAPQWINNKIEPISIRDTLYYLVKAADLPEPINEEFDIGSGHIYTFADLLRIYGKIRGLRRTIVSLPIPLPLDTLSGLWIAAITPAPLSLAQPLAQSMQEDAICSNRSIRDYISDPPSGLADYPTSVRRALQQESMGVLSSWDSSWKNLSSTDHLPSDPEWTGRTVYSDVQEQSFRSEPAKVWRVIEGIGGHHGWYSTPLLWFVRGVIDKAIGGPGLGGRRDPNRLRVGDRVDFWRVEEVTPEKQLTLRAEMRASGQAWLQFTINGNTLRQRAVYFPKGLLGRVYWLALIPFHAVIFPTMLRNIIQAGDN” here?
Answer: not soluble

Question: Which “soluble on expression in E. coli” value does the source give for “MSLKPFSEPIIRCAKARAYRIPTDRPEADGTFAWTDTTIVVATLDAGDAHGIGYTYTDASAAALIERMLAPALDGRSAFDIGGALAALRRAVRNVGRGGVAATAISALDAALWDAKAKLLGLPLAKLLGGVRDAVPVYGSGGFTSYDEHALRAQLEGWRAQGLHACKIKVGSAPRDDPARVRIARDALGGGVALFVDANGAFAPHDALAFAQRIAECDVRWFEEPVSADDIDGLRFVRERLAAGVDVAAGEYGYTLDDFRVLLASGALDVLQADATRCGGVSGFLEAATLADAFHRDLSAHCAPALHRHVCCAAPRVRHVEWFHDHARIERMLFDGAPTPRDGAIAPDMSRPGLGIELKAQDAARFAVEGHHHHHH” here?
Answer: not soluble

Question: For “MHMQLKGKTALVTGSTAGIGKAIATSLVAEGANVLINGRREENVNETIKEIRAQYPDAILQPVVADLGTEQGCQDVIEKYPKVDILINNLGIFEPVEYFDIPDEDWFKLFEVNIMSGVRLTRSYLKKMIERKEGRVIFIASEAAIMPSQEMAHYSATKTMQLSLSRSLAELTTGTNVTVNTIMPGSTLTEGVETMLNSLYPNEQLTIEEAEKRFMKENRPTSIIQRLIRPEEIAHLVTFLSSPLSSAINGSALRIDGGLVRSVF”, which “soluble on expression in E. coli” value is on record?
Answer: not soluble

Question: Which “soluble on expression in E. coli” value does the source give for “MGHHHHHHSHMSNLTPESSPELAKKSWFGNFISLEKEEQIFVVIKDKPLSSIKADIVHAFLSIPSLSHSVISQTSFRAEYKATGGPAVFQKPVKFQVDITYTEGGEAQKENGIYSVTFTLLSGPSRRFKRVVETIQAQLLSTHDPLRPSTCQTPLTVWK” here?
Answer: not soluble

Question: With “MFQLSVQDIHPGEQAGNKEEAIRQIAAALAQAGNVAGGYVDGMLAREQQTSTFLGNGIAIPHGTTDTRDQVLKTGVQVFQFPQGVTWGEGQVAYVAIGIAASSDEHLGLLRQLTHVLSDDSVAEQLKSATTAEELRALLMGEKQSEQLKLDNETMTLDVIASSLVTLQALNAARLKEAGAVDAAFVAKTINDSPMNLGQGIWLNDSAEGNLRSAVAVSRATQAFDVEGEKAALLVTVAMNDEQPIAVLKRLGDLLLNNKADRLLSADAATLLALLTSDDALTDDVLSAEFVVRNEHGLHARPGTMLVNTIKQFNSEITVTNLDGTGKPANGRSLMKVVALGVKKGHRLRFTAQGEDAEQALKAIGDAIAAGLGEGA” as the sequence, how does the “soluble on expression in E. coli” value read?
Answer: not soluble

Question: With “MHQQIIKFWFEELTPQNWFENNPELDKHIASRFASVLEQAARCELFNWRDSAQGRLAEIIVLDQFSRNVYRNTPKAFAQDPLALALAQEAIRLGHDQELAPEQLSFLYMPFMHSESRLIHVEAEKLFRASGLENNYDFELKHKAIIDQFGRYPHRNAILGRESTPEELAFLQQPGSSF” as the sequence, how does the “soluble on expression in E. coli” value read?
Answer: not soluble
